Here are results for three substances from patent US20120271036A1.

Like-named read-outs stand apart in the source and are kept apart here.

Assay [1] deals with Cul5(N), human Cullin5 residues 2-384 (V341R, L345D) after removal of GST (human) (UniProt Q93034).
Assay [2] has the same target. Kind of assay: ITC; one set of sites model.
The target is the same in assay [3]. Kind of assay: ITC, one set of sites fit of one isotherm with the actual BCvifVF concentration. On the technique in general: In ITC the heat of successive injections is recorded.
Assay [4] has the same target. Put plainly: ITC, 30 C.
The target is the same in assay [5]. The source holds these as a separate data set.

Cul5(N), human Cullin5 residues 2-384 (V341R, L345D) after removal of GST (human), sequence (Q93034 other isoform, or with tags, fused parts or gaps V341R L345D V341R L345D): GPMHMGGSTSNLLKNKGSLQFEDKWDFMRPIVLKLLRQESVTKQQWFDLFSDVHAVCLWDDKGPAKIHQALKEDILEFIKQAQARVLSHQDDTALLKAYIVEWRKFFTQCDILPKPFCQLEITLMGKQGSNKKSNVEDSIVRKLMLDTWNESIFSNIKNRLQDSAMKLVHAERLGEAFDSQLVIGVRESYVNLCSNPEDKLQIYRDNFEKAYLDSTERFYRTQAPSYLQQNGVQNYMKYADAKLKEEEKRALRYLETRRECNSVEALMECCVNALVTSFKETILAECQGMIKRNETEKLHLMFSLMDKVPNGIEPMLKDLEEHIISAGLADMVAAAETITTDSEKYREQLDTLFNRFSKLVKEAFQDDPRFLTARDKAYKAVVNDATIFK

“BCvifVF: EloB (1-118) / EloC (17-112) / vif (95-192) (A123V, L124F) (from UniProt P69723 95-192)”: the n (ITC binding stoichiometry, one set of sites model) in assay [1] is 0.901; in assay [3], 0.451. Moreover, the n (ITC binding stoichiometry) in assay [2] was determined as 0.43.
Consider “BCvif95-192: EloB (1-118) / EloC (17-112) / Vif (95-192) (from UniProt P69723 95-192)”, for which the ΔH in assay [4] is -5.24 kcal/mol. Further, in assay [5], the N was found to be 1.01 and the ΔS was determined as 11.1.
For the substance “BCvifSS: EloB (1-118) / EloC (17-112) / vif (95-192) (A123S, L124S) (from UniProt P69723 95-192)”, the ΔH in assay [4] is -7.28 kcal/mol. Moreover, the n (ITC binding stoichiometry) in assay [2] stood at 1.01.
